Here are results for 19 molecules from patent US20120093811A1 (published 2012).

T1: VEGF-D (recombinant human; source not given) (human, UniProt O43915 89-205, limits assumed)
T1 construct: also used here as target of IC50 values averaged over Source 1 and Source 2; also called vascular endothelial growth factor-D
T1 sequence: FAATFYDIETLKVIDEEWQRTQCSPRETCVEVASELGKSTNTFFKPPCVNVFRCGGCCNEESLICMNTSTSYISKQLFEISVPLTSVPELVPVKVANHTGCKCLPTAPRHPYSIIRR

B1: scFv clone AA16 (scFv)
scFv: QAQLVQSGAEVKQPGASVKVSCKASGYTFTGYNMYWVRQAPGQGLEWMGYIDPYNGDTTYNQKFKGRVTMTTDTSTSTAYMELRSLRSDDTAVYYCARTSYYGGMDYWGRGTLVTVASGGGASGGGGSGGGGSDIVMTQTPLSSPVTLGQPASISCRSSQSLVHSNGNTYLHWLQQRPGQPPRLLIYKVSNRFSGVPDRFSGSGAGTDFTLKISRVEAEDVGVYYCSQSTHVPRTFGQGTKLEIKR
B2: scFv clone DD25 (scFv)
scFv: QVQLVQSGAKVKQPGASVKASCKASGYTFTGYNMYWVRQAPGQGLEWVGYIDPYNGDTTYNQKFKGRVTMTTDTSTSTAYMELRSLRSDDTAVYYCARTSYYGGMDYWGRGTLVTVASGGGASGGGGSGGGGSDIVMTQTPLSSPVTLGQPASISCRSSQSLVHSNGNTYLHWLQQRPGQPPRLLIYKVSNRFSGVPDRFSGSGAGTDFTLKISRVEAEDVGVYYCSQSTHVPRTFGQGTKLEIKR
B3: scFv clone DC56 (scFv)
scFv: QVQLVQSGAKVRQPGASVKASCKASGYTFTGYNMYWVRQAPGQGLEWMGYIDPYNGDTTYNQKFKGRVTMTTDTSTSTAYMELRSLRSDDTAVYYCARTSYYGGMDYWGRGTLVTVASGGGASGGGGSGGGGSDIVMTQTPLSSPVTLGQPASISCRSSQSLVHSNGNTYLHWLQQRPGQPPRLLIYKVSNRFSGVPDRFSGSGAGTDFTLKISRVEAEDVGVYYCSQSTHVPRTFGQGTKLEIKR
B4: scFv clone D69 (scFv)
scFv: QVQLVQSGAEVKQPGASVKVSCKASGYTFTGYNMYWVRQAPGQGLEWMGYIDPYNGDTTYNQKFKGRVTMTTDTSTSTAYMELRSLRSDDTAVYHCARTSYYGGMDYWGRGTLVTVASGGGASGGGGSGGGGSDIVMTQTPLSSPVTLGQPASISCRSSQSLVHSNGNTYLHWLQQRPGQPPRLLIYKVSNRFSGVPGRFSGSGAGTDFTLKISRVEAEDVGVYYCSQSTHVPRTFGQGTKLEIKR
B5: scFv clone CK61 (scFv)
scFv: QVQLVQSGAKVKQPGASVKVSCKASGYTFTGYNMYWVRQAPGQGLEWMGYIDPYNGDTTYNQKFKGRVTMTTDTSTSTAYMKLRSLRSDDTAVYYCARTSYYGGMDYWGRGTLVTVASGGGASGGGGSGGGGSDIVMTQTPLSSPVTLGQPASISCRSSQSLVHSNGNTYLHWLQQRPGQPPRLLIYKVSNRFSGVPDRFSGSGAGTDFTLKISRVEAEDVGVYYCSQSTHVPRTFGQGTKLEIKR
B6: scFv clone DD76 (scFv)
scFv: QVQLVQSGAKVKQPGASVKASCKASGYTFTGYNMYWVRQAPGQGLEWMGYIDPYNGDTTYNQKFKGRVTMTTDTNTSTAYMELRSLRSDDTAVYYCARTSYYGGMDYWGRGTLVTVASGGGASGGGGSGGGGSDIVMTQTPLSSPVTLGQPASISCRSSQSLVHSNGNTYLHWLQQRPGQPPRLLIYKVSNRFSGVPDRFSGSGAGTDFTLKISRVEAEDVGVYYCSQSTHVPRTFGQGTKLEIKR
B7: scFv clone CX03 (scFv)
scFv: QVQLVQSGAEVKQPGASVTVSCKASGYTFTGYNMYWVRQAPGQGLEWMGYIDPYNGDTTYNQKFKGRVTMTTDTSTSTAYMELRSLRSDDTAVYYCARTSYYGGMDYWGRGTLVTVASGGGASGGGGSGGGGSDIVMTQTPLSSPVTLGQPASISCRSSQSLVHSNGNTYLHWLQQRPGQPPRLLIYKVSNRFSGVPGRFSGSGAGTDFTLKISRVEAEDVGVYYCSQSTHVPRTFGQGTKLEIKR
B8: scFv clone DB29 (scFv)
scFv: QVQLVQSGAKVKQPGASVKASCKASGYTFTGYNMYWVRQAPGQGLEWMGYIDPYNGDTTYNQKFKGRVTMTTDTSTSTAYMELRSLRSDDTAVYYCARTSYYGGMDYWGRGTLVTVASGGGASGGGGSGGGGSDIVMTQTPLSGPVTLGQPASISCRSSQSLVHSNGNTYLHWLQQRPGQPPRLLIYKVSNRFSGVPDRFSGSGAGTDFTLKISRVEAEDVGVYYCSQSTHVPRTFGQGTKLEIKR
B9: scFv clone CZ13 (scFv)
scFv: QVQLAQSGAKVKQPGASVKASCKASGYTFTGYNMYWVRQAPGQGLEWMGYIDPYNGDTTYNQKFKGRVTMTTDTSTSTAYMELRSLRSDDTAVYYCARTSYYGGMDYWGRGTLVTVASGGGASGGGGSGGGGSDIVMTQTPLSSPVTLGQPASISCRSSQSLVHSNGNTYLHWLQQRPGQPPRLLIYKVSNRFSGVPDRFSGSGAGTDFTLKISRVEAEDVGVYYCSQSTHVPRTFGQGTKLEIKR
B10: scFv clone CI67 (scFv)
scFv: QVQLVQSGAEVKQPGASVKVSCKASGYTFTGYNMYWVRQAPGQGLEWMGYIDPYNGDTTYNQKFKGRATMTTDTSTSTAYMKLRSLRSDDTAVYYCARTSYYGGMDYWGRGTLVTVASGGGASGGGGSGGGGSDIVMTQTPLSSPVTLGQPASISCRSSQSLVHSNGNTYLHWLQQRPGQPPRLLIYKVSNRFSGVPDRFSGSGAGTDFTLKISRVEAEDVGVYYCSQSAHVPRTFGQGTKLEIKR
B11: scFv clone CW16 (scFv)
scFv: QVQLVQSGAEVKQPGASVKVSCKASGYTFTGYNMYWVRQAPGQGLEWMGYIDPYNGDTTYNQKFKGRVTMTTDTSTSTAYMELRSLRSGDTAVYYCARTSYYGGMDYWGRGTLVTVASGGGASGGGGSGGGGSDIVMTQTPLSSPATLGQPASISCRSSQSLVHSNGNTYLHWLQQRPGQPPRLLIYKVSNRFSGVPDRFSGSGAGTDFTLKISRVEAEDVGVYYCSQSTHVPRTFGQGTKLEIKR
B12: scFv clone DC64 (scFv)
scFv: QVQLVQSGAKVKQPGASMKASCKASGYTFTGYNMYWVRQAPGQGLEWMGYIDPYNGDTTYNQKFKGRVTMTTDTSTSTAYMELRSLRSDDTAVYYCARTSYYGGMDYWGRGTLVTVASGGGASGGGGSGGGGSDIVMTQTPLSSPVTLGQPASISCRSSQSLVHSNGNTYLHWLQQRPGQPPRLLIYKVSNRFSGVPDRFSGSGAGTDFTLKISRVEAEDVGVYYCSQSTHVPRTFGQGTKLEIKR
B13: scFv clone CJ17 (scFv)
scFv: QVQLVQSGAEVKQPGASVKVSCEASGYTFTGYNMYWVRQAPGQGLEWMGYIDPYNGDTTYNQKFKGRVTMTTDTSTSTAYMKLRSLRSDDTAVYYCARTSYYGGMDYWGRGTLVTVASGGGASGGGGSGGGGSDIVMTQTPLSSPVTLGQPASISCRSSQSLVHSNGNTYLHWLQQRPGQPPRLLIYKVSNRFSGVPDRFSGSGAGTDFTLKISRVEAEDVGVYYCSQSTHVPRTFGQGTKLEIKR
B14: scFv clone CZ24 (scFv)
scFv: QVQLVQSGAKVKQPGANVKASCKASGYTFTGYNMYWVRQAPGQGLEWMGYIDPYNGDTTYNQKFKGRVTMTTDTSTSTAYMELRSLRSDDTAVYYCARTSYYGGMDYWGRGTLVTVASGGGASGGGGSGGGGSDIVMTQTPLSSPVTLGQPASISCRSSQSLVHSNGNTYLHWLQQRPGQPPRLLIYKVSNRFSGVPDRFSGSGAGTDFTLKISRVEAEDVGVYYCSQSTHVPRTFGQGTKLEIKR
B15: scFv clone DA74 (scFv)
scFv: QVQLAQSGAKVKQPGASVKASCKASGYTFTGYNMYWVRQAPGQGLEWMGYIDPYNGDTTYNQKFKGRVTMTTDTSTSTAYMELRSLRSDDTAVYYCARTSYYGGMDYWGRGTLVTVASGGGASGGGGSGGGGSDIVMTQTPLSSPVTLGQPASISCRSSQSLVHSNGNTYLHWLQQRPGQPPRLLIYKVSNRSSGVPDRFSGSGAGTDFTLKISRVEAEDVGVYYCSQSTHVPRTFGQGTKLEIKR
B16: scFv clone AC75 (scFv)
scFv: QVQLVQSGAEVKQPGASVKVSCKASGYTFTGYNMYWVRQAPGQGLEWMGYIDPYNGDTTYNQKFKGRVTMTTDTSTSTAYVELRSLRSDDTAVYYCARTSYYGGMDYWGRGTLVTVASGGGASGGGGSGGGGSDIVMTQTPLSSPVTLGQPASISCRSSQSLVHSNGNTYLHWLQQRPGQPPRLLIYKVSNRFSGVPDRFSGSGAGTDFTLKISRVEAEDVGVYYCSQSTHVPRTFGQGTKLEIKR
B17: scFv clone DD17 (scFv)
scFv: QVQLVQSGAKVKQPGAGVKASCKASGYTFTGYNMYWVRQAPGQGLEWMGYIDPYNGDTTYNQKFKGRVTMTTDTSTSTAYMELRSLRSDDTAVYYCARTSYYGGMDYWGRGTLVTVASGGGASGGGGSGGGGSDIVMTQTPLSSPVTLGQPASISCRSSQSLVHSNGNTYLHWLQQRPGQPPRLLIYKVSNRFSGVPDRFSGSGAGTDFTLKISRVEAEDVGVYYCSQSTHVPRTFGQGTKLEIKR
B18: scFv clone CZ77 (scFv)
scFv: QVQLVQSGAKVKQPGASVKASCKASGYTFTGYNMYWVRQAPGQGLEWMGYIDPYNGDTTYNQKFRGRVTMTTDTSTSTAYMELRSLRSDDTAVYYCARTSYYGGMDYWGRGTLVTVASGGGASGGGGSGGGGSDIVMTQTPLSSPVTLGQPASISCRSSQSLVHSNGNTYLHWLQQRPGQPPRLLIYKVSNRFSGVPDRFSGSGAGTDFTLKISRVEAEDVGVYYCSQSTHVPRTFGQGTKLEIKR
B19: scFv clone BF36 (scFv)
scFv: QVQLVQSGAEVKQPGASVKVSCKASGYTFTGYNMYWVRQAPGQGLEWMGYIDPYNGDTTYNQRFKGRVTMTTDTSTSTAYMKLRSLRSDDTAVYYCARTSYYGGMDYWGRGALVTVASGGGASGGGGSGGGGSDIVMTQTPLSSPVTLGQPASISCRSSQSLVHSNGNTYLHWLQQRPGQPPRLLIYKVSNRFSGVPDRFSGSGAGTDFTLRISRVEAEDVGVYYCSQSTHVPRTFGQGTKLEIKR

In the assay the target is T1, VEGF-D (recombinant human; source not …). Kind of assay: SPR (BIAcore) off-rate ranking of scFv clones. The procedure:
Screening based on scFv binding properties involved surface plasmon resonance (SPR) measurements with a BIAcore™ biosensor. scFv variants were expressed in 200 μL E. coli cultures and the supernatants used to generate crude off-rate only kinetics, which were assessed “relative” to 1A, or other variants.
Background: In SPR one partner is held on a chip, and binding of the other changes the refractive index at the surface.
For orientation: koff means the first-order rate constant of dissociation. B1: the koff amounted to 0.00795 s⁻¹.

On to B2, for which the koff came to 0.00373 s⁻¹.

Regarding B3, the koff worked out at 0.00723 s⁻¹.

B4: the koff amounted to 0.00341 s⁻¹.

B5: the koff was determined as 0.00522 s⁻¹.

On to B6, for which the koff was 0.00637 s⁻¹.

Turning to B7, the koff is 0.00739 s⁻¹.

Take B8: the koff is 0.00575 s⁻¹.

B9: the koff was 0.00826 s⁻¹.

In the case of B10, the koff stood at 0.00379 s⁻¹.

As to B11, the koff worked out at 0.00726 s⁻¹.

Take B12: the koff stood at 0.00738 s⁻¹.

On to B13, for which the dissociation rate constant (koff) came to 0.00291 s⁻¹.

Take B14: the koff turned out to be 0.00759 s⁻¹.

For B15, the koff was 0.00424 s⁻¹.

Consider B16, for which the koff stood at 0.00637 s⁻¹.

As to B17, the koff came to 0.0091 s⁻¹.

B18: the koff came out at 0.00408 s⁻¹.

For B19, the koff came to 0.00362 s⁻¹.
